Data taken from the supplement of paper PMC10567573.

B1: CPOX (parent)
chain: HAPTIHFNYRYFEVEEADGNKQWW
B2: DFFB (parent)
chain: KLNCDPSRIYKPQTRLKRKQPVRK

Variants of: B1
Experiment: protein stability index of a GFP-peptide fusion (GPS, HEK-293T) (PSI 1-6); higher = more stable
Conditions: c terminus: a fixed tail appended
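Further: lentivirally expressed fusions sorted by FACS into six bins by GFP to DsRed ratio, PSI derived from sequencing read proportions per bin multiplied by bin number.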

Variant | protein stability index
W24F | 2.69
W24D | 3.82
W24T | 2.86
W24A | 3.17
W24P | 2.91
W24C | 2.63
W24N | 3.06
W24H | 3.03
W23K | 3.35
W23G | 2.8
W23N | 3.71
W23D | 4.27
V14R | 2.29
V14T | 2.43
V14I | 2.44
V14C | 1.82
V14A | 2.52
V14W | 2.35
V14K | 2.85
E15A | 1.93
E15W | 2.4
E15M | 2.35

Variant | protein stability index
E15Y | 1.9
E16C | 1.67
E16G | 2.21
E16T | 2.53
E16N | 1.83
E16K | 2.18
E16R | 1.91
E16A | 1.67
E16D | 2.13
E16H | 1.82
E16L | 1.44
A2Y | 2.33
A2D | 2.94
A2G | 2.43
P3M | 1.97
P3A | 1.97
P3L | 2.49
P3Q | 1.65
P3N | 2.09
E13Q | 2.17
E13F | 1.63
E13G | 2.06

Variant | protein stability index
E13Y | 1.7
E13V | 2.52
E13R | 1.56
E13T | 1.67
E13I | 2.04
H6V | 1.61
H6D | 2.92
H6Q | 2.52
H6I | 2.34
H6E | 2.66
H6R | 2.04
G19C | 1.97
G19P | 2.04
G19W | 1.79
G19E | 2.48
G19K | 2.17
G19L | 1.87
G19F | 2.46
G19M | 2.06
Q22Y | 2.5
Q22T | 2.27
Q22V | 1.9

Variant | protein stability index
Q22G | 2.46
Q22S | 1.59
H1Q | 2.96
H1G | 3.62
T4K | 2.26
T4F | 2.12
T4I | 2.21
T4G | 2.57
T4P | 2.7
T4N | 2.63
T4S | 2.8
F7W | 2.96
F7Q | 3.21
F7K | 3.03
F7M | 2.26
F7G | 3.52
F7I | 3.05
A17S | 2.23
A17T | 2.35
A17N | 3.19
A17G | 2.57
A17I | 1.86

Variant | protein stability index
A17V | 1.9
F12I | 2.33
F12G | 3.51
F12W | 1.99
F12C | 2.02
F12H | 3.01
I5N | 2.9
I5E | 3.55
N8M | 2.53
N8G | 2.36
N8S | 3.03
N8P | 2.69
N20G | 2.38
N20M | 1.32
N20E | 2.75
N20A | 1.76
Y11S | 2.92
Y11M | 2.42
Y11D | 3.12
Y9I | 2.22
Y9C | 1.29
Y9P | 3.1

Variant | protein stability index
Y9W | 3.32
Y9L | 3.03
Y9E | 3.5
Y9H | 2.9
Y9V | 2.25
R10Y | 2.27
R10K | 2.47
R10A | 2.56
R10V | 2.48
R10D | 3.03
R10G | 2.42
D18I | 1.5
D18G | 2.45
D18M | 1.7
D18Q | 3.07
D18L | 1.3
K21V | 2.1
K21T | 1.53
K21H | 2.6
K21Y | 1.95
K21I | 2.25
K21S | 1.99

Variants of: B2
Experiment: as above
Conditions: c terminus: a fixed tail appended

Variant | protein stability index
T14F | 2.68
T14M | 2.64
T14G | 3.49
T14Q | 3.31
T14V | 3.51
T14H | 3.77
T14L | 3.91
T14S | 3.19
T14K | 3.54
T14W | 3.95
T14E | 3.28
T14Y | 3.49
T14I | 3.34
T14N | 3.58
T14R | 3.52
T14P | 3.11
T14D | 3.28
R15K | 3.24
R15H | 3.59
R15M | 3.21
R15E | 3.68
R15D | 3.09
R15S | 3.96
R15F | 3.25
R15W | 3.02
R15Q | 2.67

Variant | protein stability index
R15N | 3.26
R15L | 2.69
R15C | 3.24
R15V | 3.49
R15A | 2.82
R15G | 3.58
R15I | 3.52
R15T | 3.76
R15Y | 2.17
R15P | 3.6
P21C | 3.36
P21S | 3.13
P21F | 3.37
P21A | 4.07
P21I | 3.16
P21D | 2.71
P21E | 3.28
P21V | 3.31
P21R | 3.31
P21Q | 3.37
P21T | 3.86
P21H | 3.41
P21M | 3.76
P21Y | 3.91
P21K | 2.75
P21W | 3.45

Variant | protein stability index
P21G | 3.49
P21N | 3.67
K19P | 3.25
K19H | 3.49
K19D | 3.53
K19W | 2.94
K19C | 2.69
K19Q | 3.34
K19N | 3.54
K19A | 3.66
K19T | 3.52
K19I | 3.18
K19L | 3.14
K19M | 3.31
K19G | 2.63
K19S | 2.78
K19F | 1.86
K19E | 2.93
K19R | 3.9
K19Y | 2.89
K19V | 2.96
Q20E | 3.04
Q20C | 3.6
Q20M | 4.04
Q20G | 4.19
Q20K | 3.7

Variant | protein stability index
Q20S | 2.75
Q20R | 3.59
Q20W | 3.24
Q20F | 3.15
Q20P | 2.98
Q20T | 4.39
Q20H | 3.12
Q20N | 3.66
Q20A | 3.38
Q20I | 3.69
Q20D | 3.35
Q20Y | 2.91
Q20V | 3.54
R23Q | 3.9
R23I | 3.53
R23H | 3.43
R23W | 2.59
R23C | 3.21
R23V | 3.25
R23G | 3.35
R23K | 3.01
R23A | 3.39
R23D | 3.83
R23M | 3.1
R23L | 2.81
R23P | 3.84

Variant | protein stability index
R23E | 3.34
R23T | 3.77
R23Y | 3.48
R23S | 3.49
R18P | 3.83
R18L | 3.62
R18Y | 3.05
R18K | 3.76
R18A | 2.94
R18F | 3.44
R18S | 3.37
R18Q | 3.4
R18G | 3.28
R18E | 4.21
R18N | 3.23
R18W | 3.03
R18C | 3.43
R18V | 3.89
R18H | 3.13
R18D | 3.34
R18M | 3.68
R18T | 3.96
R18I | 3.32
V22K | 3.14
V22I | 3.78
V22C | 3.41

Variant | protein stability index
V22H | 3.75
V22N | 3.62
V22L | 3.62
V22R | 2.03
V22S | 4.09
V22W | 3.26
V22M | 3.42
V22F | 3.48
V22P | 3.87
V22G | 4.39
V22T | 3.64
V22A | 3.77
V22Q | 3.39
V22D | 3.67
V22E | 3.31
V22Y | 2.22
L16V | 3.88
L16D | 2.92
L16N | 3.85
L16C | 2.95
L16R | 3.48
L16K | 3.07
L16Q | 3.9
L16I | 3.67
L16P | 3.83
L16S | 3.6

Variant | protein stability index
L16T | 4.05
L16G | 4.16
L16H | 3.9
L16Y | 3.77
L16W | 3
L16M | 3.23
L16E | 4.44
L16A | 3.34
L16F | 2.8
K24I | 3.03
K24C | 2.96
K24N | 3.44
K24T | 4.04
K24L | 2.87
K24P | 3.32
K24S | 4.02
K24H | 3.15
K24M | 3.11
K24F | 2.7
K24E | 3.99
K24Q | 3.18
K24Y | 3.11
K24V | 2.49
K24G | 3.23
K24D | 3.56
K24R | 3.96

Variant | protein stability index
K24A | 4.04
K17P | 3
K17E | 3.42
K17S | 3.35
K17I | 3.21
K17G | 4.14
K17W | 3.19
K17H | 2.55
K17F | 3.45
K17Q | 2.9
K17D | 2.17
K17L | 2.14
K17Y | 3.68
K17T | 3.14
K17N | 3.21
K17R | 3.18
K17V | 3.25
K17C | 3.38
K17M | 3.45
K17A | 2.98
